Data on eleven proteins can be found in publication PMC12627087, “mRNA delivery of circumsporozoite protein epitope-based malaria vaccines induces protection in a mouse model” (NPJ Vaccines, 2025).

The chains are these.
B1: P8 60mer (other)
chain: NYYGKQENWYSLKKNGSGNGTGGSMQIYEGKLTAEGLRFGIVASRANHALVDRLVEGAIDAIVRHGGREEDITLVRVCGSWEIPVAAGELARKENISAVIAIGVLCRGATPSFDYIASEVSKGLADLSLELRKPITFGVITADTLEQAIEAAGTCHGNKGWEAALCAIEMANLFKSLRGGSNGTGGSGGSNGT
modifications: glycosylated (engineered glycosylation sites)
notes: Plasmodium falciparum circumsporozoite protein (PfCSP), strain 3D7; linker between the peptide and lumazine synthase; C-terminal extension with two added glycosylation sites; Self-assembling lumazine synthase nanoparticle; cloned into pHLsec between the leader and a double stop codon (AgeI/KpnI); source: FreeStyle 293 F cells, transfected, purified (snowdrop lectin agarose, Superose 6 SEC); …
B2: J2 60mer (other)
chain: KLKQPADGNPDPNANPNVDPNANPNVDPGSGNGTGGSMQIYEGKLTAEGLRFGIVASRANHALVDRLVEGAIDAIVRHGGREEDITLVRVCGSWEIPVAAGELARKENISAVIAIGVLCRGATPSFDYIASEVSKGLADLSLELRKPITFGVITADTLEQAIEAAGTCHGNKGWEAALCAIEMANLFKSLRGGSNGTGGSGGSNGT
modifications: glycosylated (engineered glycosylation sites)
notes: Plasmodium falciparum circumsporozoite protein (PfCSP), strain 3D7; J2, minimal junction peptide beginning with Region I; linker between the peptide and lumazine synthase; C-terminal extension with two added glycosylation sites; Self-assembling lumazine synthase nanoparticle; cloned into pHLsec between the leader and a double stop codon (AgeI/KpnI); also called peptide J2-60mer; short junctional …
B3: C-term WT 60mer (other)
chain: EPSDKHIKEYLNKIQNSLSTEWSPCSVTCGNGIQVRIKPGSANKPKDELDYANDIEKKICKMEKCGGSMQIYEGKLTAEGLRFGIVASRANHALVDRLVEGAIDAIVRHGGREEDITLVRVCGSWEIPVAAGELARKENISAVIAIGVLCRGATPSFDYIASEVSKGLADLSLELRKPITFGVITADTLEQAIEAAGTCHGNKGWEAALCAIEMANLFKSLRGGSNGTGGSGGSNGT
modifications: glycosylated (engineered glycosylation sites)
notes: Plasmodium falciparum circumsporozoite protein (PfCSP), strain 3D7; wild-type C-terminal αTSR domain, without the C-terminal linker; linker; C-terminal extension with two added glycosylation sites; Self-assembling lumazine synthase nanoparticle; cloned into pHLsec between the leader and a double stop codon (AgeI/KpnI); also called wild-type C-terminal domain on 60mer; WT αTSR 60mer; source: …
B4: C-term MD1 60mer (other)
chain: EPSDNHTKSYYAKIQNSLSTEWSPCSVTCGNGIQVRIKPGSANKPKANLTYANDIEKKICKMEKCGGSMQIYEGKLTAEGLRFGIVASRANHALVDRLVEGAIDAIVRHGGREEDITLVRVCGSWEIPVAAGELARKENISAVIAIGVLCRGATPSFDYIASEVSKGLADLSLELRKPITFGVITADTLEQAIEAAGTCHGNKGWEAALCAIEMANLFKSLRGGSNGTGGSGGSNGT
modifications: glycosylated (engineered glycosylation sites)
notes: Plasmodium falciparum circumsporozoite protein (PfCSP), strain 3D7; C-terminal αTSR domain, Rosetta-designed variant MD1; linker; C-terminal extension with two added glycosylation sites; Self-assembling lumazine synthase nanoparticle; cloned into pHLsec between the leader and a double stop codon (AgeI/KpnI); also called modified-1 C-term 60mer; MD1 αTSR 60mer; source: FreeStyle 293 F cells, …
B5: (NANP)6 60mer (other)
chain: NANPNANPNANPNANPNANPNANPGSGNGTGGSMQIYEGKLTAEGLRFGIVASRANHALVDRLVEGAIDAIVRHGGREEDITLVRVCGSWEIPVAAGELARKENISAVIAIGVLCRGATPSFDYIASEVSKGLADLSLELRKPITFGVITADTLEQAIEAAGTCHGNKGWEAALCAIEMANLFKSLRGGSNGTGGSGGSNGT
modifications: glycosylated (engineered glycosylation sites)
notes: Plasmodium falciparum circumsporozoite protein (PfCSP), strain 3D7; (NANP)6, 24-residue NANP repeat peptide; linker between the peptide and lumazine synthase; C-terminal extension with two added glycosylation sites; Self-assembling lumazine synthase nanoparticle; cloned into pHLsec between the leader and a double stop codon (AgeI/KpnI); also called (NANP)6 peptide 60mer; source: FreeStyle 293 F …
B6: J2 24mer (other)
chain: KLKQPADGNPDPNANPNVDPNANPNVDPLSKDIIKLLNEQVNKEMQSSNLYMSMSSWCYTHSLDGAGLFLFDHAAEEYEHAKKLIIFLNENNVPVNLTSISAPEHNFTGLTQIFQKAYEHEQNISESINNITDHAIKSKDHATFNFLQWYVAEQHEEEVLFKDILDKIELIGNENHGLYLADQYVKGIAKSRKS
modifications: glycosylated (engineered glycosylation sites)
notes: Plasmodium falciparum circumsporozoite protein (PfCSP), strain 3D7; J2, minimal junction peptide beginning with Region I; Self-assembling ferritin nanoparticle; cloned into pHLsec between the leader and a double stop codon (AgeI/KpnI); also called peptide J2-24mer; source: FreeStyle 293 F cells, transfected, purified (snowdrop lectin agarose, Superose 6 SEC); copies: 24
B7: P2 24mer (other)
chain: SNTRVLNELNYDNAGLSKDIIKLLNEQVNKEMQSSNLYMSMSSWCYTHSLDGAGLFLFDHAAEEYEHAKKLIIFLNENNVPVNLTSISAPEHNFTGLTQIFQKAYEHEQNISESINNITDHAIKSKDHATFNFLQWYVAEQHEEEVLFKDILDKIELIGNENHGLYLADQYVKGIAKSRKS
modifications: glycosylated (engineered glycosylation sites)
notes: Plasmodium falciparum circumsporozoite protein (PfCSP), strain 3D7; Self-assembling ferritin nanoparticle; cloned into pHLsec between the leader and a double stop codon (AgeI/KpnI); source: FreeStyle 293 F cells, transfected, purified (snowdrop lectin agarose, Superose 6 SEC); copies: 24
B8: P2 60mer (other)
chain: SNTRVLNELNYDNAGGSGNGTGGSMQIYEGKLTAEGLRFGIVASRANHALVDRLVEGAIDAIVRHGGREEDITLVRVCGSWEIPVAAGELARKENISAVIAIGVLCRGATPSFDYIASEVSKGLADLSLELRKPITFGVITADTLEQAIEAAGTCHGNKGWEAALCAIEMANLFKSLRGGSNGTGGSGGSNGT
modifications: glycosylated (engineered glycosylation sites)
notes: as for B1
B9: (NANP)6 24mer (other)
chain: NANPNANPNANPNANPNANPNANPLSKDIIKLLNEQVNKEMQSSNLYMSMSSWCYTHSLDGAGLFLFDHAAEEYEHAKKLIIFLNENNVPVNLTSISAPEHNFTGLTQIFQKAYEHEQNISESINNITDHAIKSKDHATFNFLQWYVAEQHEEEVLFKDILDKIELIGNENHGLYLADQYVKGIAKSRKS
modifications: glycosylated (engineered glycosylation sites)
notes: Plasmodium falciparum circumsporozoite protein (PfCSP), strain 3D7; (NANP)6, 24-residue NANP repeat peptide; Self-assembling ferritin nanoparticle; cloned into pHLsec between the leader and a double stop codon (AgeI/KpnI); source: FreeStyle 293 F cells, transfected, purified (snowdrop lectin agarose, Superose 6 SEC); copies: 24
B10: P9 24mer (other)
chain: KQENWYSLKKNSRSLLSKDIIKLLNEQVNKEMQSSNLYMSMSSWCYTHSLDGAGLFLFDHAAEEYEHAKKLIIFLNENNVPVNLTSISAPEHNFTGLTQIFQKAYEHEQNISESINNITDHAIKSKDHATFNFLQWYVAEQHEEEVLFKDILDKIELIGNENHGLYLADQYVKGIAKSRKS
modifications: glycosylated (engineered glycosylation sites)
notes: as for B7
B11: P1 60mer (other)
chain: YGSSSNTRVLNELNYGSGNGTGGSMQIYEGKLTAEGLRFGIVASRANHALVDRLVEGAIDAIVRHGGREEDITLVRVCGSWEIPVAAGELARKENISAVIAIGVLCRGATPSFDYIASEVSKGLADLSLELRKPITFGVITADTLEQAIEAAGTCHGNKGWEAALCAIEMANLFKSLRGGSNGTGGSGGSNGT
modifications: glycosylated (engineered glycosylation sites)
notes: as for B1

The data set concerns the molecule itself. As to the kind of experiment: SEC + SEC-MALS + other: negative stain electron microscopy; self-assembly of the protomer into the nanoparticle; Superose 6 10/300 at 0.5 ml/min with DAWN HELEOS II and Optilab T-rEX detectors, glycan mass corrected by protein-conjugate analysis; nsEM at 0.1 mg/ml in HBS, uranyl formate. A general note: Size exclusion chromatography separates by hydrodynamic size, large species first.
Turning to B1, the binding result is on record as “binds”.

Turning to B2, the binding result was “binds”. For the protein B3, the binding result was “binds”.

As to B4, the binding result is listed as “binds”.

In the case of B5, the binding result is “binds”. For B6, the binding result is listed as “binds”. Turning to B7, the binding result is “binds”.

For the protein B8, the binding result is on record as “binds”.

Take B9: the binding result is reported as “binds”. Regarding B10, the binding result is given as “binds”. Turning to B11, the binding result was “binds”.
